Test results reported in publication PMC8602292, “Acyl carrier protein promotes MukBEF action in Escherichia coli chromosome organization-segregation” (Nature Communications, 2021).

T1: MukB^KRK (K1114E, R1122E and K1125E) (Escherichia coli, UniProt P22523 1-1486, K1114E | R1122E | K1125E)
T1 construct: E. coli MukB, triple charge-reversed mutant; source: E. coli FL01 (mukB 3xFLAG C3013I), purified (TALON, HiTrap Heparin, Superdex 200); not shown: His tag, C-terminal, kept
T1 sequence (looked up): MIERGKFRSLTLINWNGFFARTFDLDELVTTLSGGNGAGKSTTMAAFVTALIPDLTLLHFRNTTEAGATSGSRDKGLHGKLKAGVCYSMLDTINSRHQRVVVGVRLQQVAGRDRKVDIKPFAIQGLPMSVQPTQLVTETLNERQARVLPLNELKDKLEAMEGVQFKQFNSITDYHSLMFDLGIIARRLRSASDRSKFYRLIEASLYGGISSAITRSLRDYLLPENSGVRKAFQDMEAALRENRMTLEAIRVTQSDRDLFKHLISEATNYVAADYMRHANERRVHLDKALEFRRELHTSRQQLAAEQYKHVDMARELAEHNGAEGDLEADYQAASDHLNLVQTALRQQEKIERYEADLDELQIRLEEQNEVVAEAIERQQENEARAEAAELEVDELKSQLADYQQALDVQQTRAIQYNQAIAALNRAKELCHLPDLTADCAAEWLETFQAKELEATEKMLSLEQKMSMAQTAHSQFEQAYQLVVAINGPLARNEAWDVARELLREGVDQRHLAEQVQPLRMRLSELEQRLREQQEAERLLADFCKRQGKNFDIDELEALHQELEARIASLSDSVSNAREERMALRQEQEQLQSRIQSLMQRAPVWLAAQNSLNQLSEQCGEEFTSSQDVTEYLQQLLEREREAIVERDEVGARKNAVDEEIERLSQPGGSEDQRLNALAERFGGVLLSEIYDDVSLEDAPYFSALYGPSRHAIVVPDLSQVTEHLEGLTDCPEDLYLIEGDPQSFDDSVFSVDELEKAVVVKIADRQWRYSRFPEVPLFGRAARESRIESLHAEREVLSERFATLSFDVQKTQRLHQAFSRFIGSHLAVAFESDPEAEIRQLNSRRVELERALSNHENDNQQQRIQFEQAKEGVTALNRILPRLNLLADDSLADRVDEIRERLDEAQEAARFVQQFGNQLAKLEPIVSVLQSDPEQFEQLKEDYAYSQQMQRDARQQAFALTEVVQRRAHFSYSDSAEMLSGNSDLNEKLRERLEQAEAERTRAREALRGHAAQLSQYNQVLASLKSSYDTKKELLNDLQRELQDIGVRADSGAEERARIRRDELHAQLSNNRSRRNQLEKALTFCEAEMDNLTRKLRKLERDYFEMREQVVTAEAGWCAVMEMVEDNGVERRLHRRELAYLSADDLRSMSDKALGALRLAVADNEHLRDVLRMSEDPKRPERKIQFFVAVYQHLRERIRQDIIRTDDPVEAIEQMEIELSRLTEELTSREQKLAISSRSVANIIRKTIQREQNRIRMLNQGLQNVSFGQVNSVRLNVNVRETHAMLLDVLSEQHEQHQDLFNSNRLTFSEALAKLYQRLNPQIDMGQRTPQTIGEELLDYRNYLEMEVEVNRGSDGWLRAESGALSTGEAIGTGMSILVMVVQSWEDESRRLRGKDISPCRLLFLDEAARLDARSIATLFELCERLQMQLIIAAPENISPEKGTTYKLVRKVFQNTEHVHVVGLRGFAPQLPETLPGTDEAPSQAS


Key:
[1] = biological target: the molecule itself; test: native MS; mixtures of MukB, MukE, MukF and AcpP at various concentrations of MukB; 200 mM ammonium acetate pH 8.0
[2] = biological target: T1, MukB^KRK (K1114E, R1122E and K1125E); test: native gel or EMSA; BN-PAGE; MukB or MukB^HN (0-4.5 μM) with MukF (1.5 μM), MukE (3 μM) and AcpP as indicated or none; 1 mM DTT, 1 mM MgCl2, 30 min at 22 °C; 3-12% native Bis-Tris gels; AMPPNP in some samples; settings: both partners purified

binding result [2]	Binder	binding result [1]
binds	MukF (His-MukF) (natural protein, Escherichia coli, UniProt P60293 1-440, looked up, MukF, the kleisin of Escherichia coli MukBEF; The end of the tag is read from the printed name 'His-MukF'; also called kleisin MukF; source: E. coli C3013I (NEB), pET vector, purified (TALON, HiTrap DEAE FF, Superdex 200)) MSEFSQTVPELVAWARKNDFSISLPVDRLSFLLAVATLNGERLDGEMSEGELVDAFRHVSDAFEQTSETIGVRANNAINDMVRQRLLNRFTSEQAEGNAIYRLTPLGIGITDYYIRQREFSTLRLSMQLSIVAGELKRAADAAEEGGDEFHWHRNVYAPLKYSVAEIFDSIDLTQRLMDEQQQQVKDDIAQLLNKDWRAAISSCELLLSETSGTLRELQDTLEAAGDKLQANLLRIQDATMTHDDLHFVDRLVFDLQSKLDRIISWGQQSIDLWIGYDRHVHKFIRTAIDMDKNRVFAQRLRQSVQTYFDEPWALTYANADRLLDMRDEEMALRDEEVTGELPEDLEYEEFNEIREQLAAIIEEQLAVYKTRQVPLDLGLVVREYLSQYPRARHFDVARIVIDQAVRLGVAQADFTGLPAKWQPINDYGAKVQAHVIDKY	binds
binds	MukE (MukE-His) (natural protein, Escherichia coli, UniProt P22524 1-234, looked up, MukE, the KITE protein of Escherichia coli MukBEF; The end of the tag is read from the printed name 'MukE-His'; also called KITE protein MukE; source: E. coli C3013I (NEB), pET vector, purified (TALON, HiTrap DEAE FF, Superdex 200)) MSSTNIEQVMPVKLAQALANPLFPALDSALRSGRHIGLDELDNHAFLMDFQEYLEEFYARYNVELIRAPEGFFYLRPRSTTLIPRSVLSELDMMVGKILCYLYLSPERLANEGIFTQQELYDELLTLADEAKLLKLVNNRSTGSDVDRQKLQEKVRSSLNRLRRLGMVWFMGHDSSKFRITESVFRFGADVRAGDDPREAQRRLIRDGEAMPIENHLQLNDETEENQPDSGEEE	–
